# Measurements: publication PMC5590901
# T1: orexin receptor 1 (OX1R) (human (endogenous in HepG2)) (UniProt O43613)
# T1 sequence: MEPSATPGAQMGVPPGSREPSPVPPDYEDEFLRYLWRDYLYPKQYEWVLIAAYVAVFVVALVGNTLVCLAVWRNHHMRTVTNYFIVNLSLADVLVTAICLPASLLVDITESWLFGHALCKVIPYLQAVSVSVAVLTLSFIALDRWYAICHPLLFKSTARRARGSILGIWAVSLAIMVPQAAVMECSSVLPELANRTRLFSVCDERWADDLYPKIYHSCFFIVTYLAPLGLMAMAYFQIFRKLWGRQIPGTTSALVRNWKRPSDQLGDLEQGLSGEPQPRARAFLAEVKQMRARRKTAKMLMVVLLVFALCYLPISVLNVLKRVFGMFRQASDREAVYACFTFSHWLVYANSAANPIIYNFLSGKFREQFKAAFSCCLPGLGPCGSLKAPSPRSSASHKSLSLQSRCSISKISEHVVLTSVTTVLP
# Legend:
# [1] = target: T1, orexin receptor 1 (OX1R) (human (endogenous in HepG2))
# [2] = target: T1, orexin receptor 1 (OX1R) (human (endogenous in HepG2)); remark: listed apart in the source
# [3] = target: T1, orexin receptor 1 (OX1R) (human (endogenous in HepG2)); remark: listed apart in the source
binder,measurement,setting,value
QPLPDCCRQKTCSCRLYELLHGAGNHAAGILTL [Orexin A],"cellular ATP content in HepG2 cells, orexin A 10^-9 to 10^-7 M for 2 h, fold of control; abrogated by the OX1R inhibitor SB334867 (10^-6 M)",[1],3.03 fold
same,"LDHA mRNA (real-time PCR) in HepG2 cells, 10^-7 M orexin A for 2 h, fold against control; dampened by the OX1R inhibitor SB334867 (10^-6 M)",[2],0.5 fold
same,"PDK1 mRNA (real-time PCR) in HepG2 cells, 10^-7 M orexin A for 2 h, fold against control; dampened by the OX1R inhibitor SB334867 (10^-6 M)",[2],0.53 fold
same,"GLUT1 protein expression (western blot) in HepG2 cells, orexin A 10^-9 to 10^-7 M for 2 h, fold of untreated cells; blocked by the OX1R inhibitor SB334867 (10^-6 M)",[3],2.43 fold
same,"glucose uptake (2-deoxy-D-[3H]glucose) in HepG2 cells, orexin A 10^-9 to 10^-7 M, fold of control; blocked by the OX1R inhibitor SB334867 (10^-6 M)",[3],1.71 fold
